Assay results from the DeepSol protein solubility set.

Assay: soluble on expression in E. coli; label from the status in PepcDB or PDB records

| Sequence | soluble on expression in E. coli |
| --- | --- |
| MGSDKIHHHHHHMSPRCSTCGMGQLCLPVGMNQQDLQKMDTLVQERVRVHKGETLYRMGDPLTAVYAIRFGTLKTHVTTEDGRSQITGFHLPGEVVGLDGLGEMQHASDATALEDTEVCVVRLSDLQSLSMDLPSLQQQFLRLMGKEISNDQLMLVTLGSMRAEERLAAFLINLSERLSARGYSSTEFVMRMSREEIGSYLGLKLETVSRLFSRFAEAGLIQIRQRHVKLVDMAGIKQVYSRSC | not soluble |
| MGSDKIHHHHHHMKVLVTGHRGYIGAVLTPMLHQRDHDVTGLDSDIFRSCTFEGTLDDTPTMEEDVRDIVIDDLAGFDAVIHLAGLSNDPLGDYRPNLTQQINCEASVTLARLAKRAGVPRFLFASSCSNYGAAGSGFLTESAAFNPVTPYGISKVEVEHAVAPMADECFSPTFLRASTAYGLSPRIRFDLVLNNLTAWAFTTGQIYLKSDGSPWRPIVHVEDIARAYIAALEADRELVHNQAFNVGLTTENYQVREIADIVQAIVPNSRIEFAADAGPDTRCYRVDCNYIGRRLHAFKPQWTARRGVEQLYEAFCSVGLSLEDFEGERFKRIAHVKKLIRNGELDEDLRRVSVPTMALAV | not soluble |
| MSLSPLEMALLVHRGEFHLRELEPELPLEKFLKNADPKKTRKFLEKCGKEELERQKELIRKHNVKLVSFWEDDYPQHLREIRYPPAVLFVRGDAELLKEKCVGVVGTRRPTSYGVNVTKRFVKLLSEYFVIVSGMAFGIDSVAHKEALSSGGKTVAVLGTGVDVVYPRSNERLFHEIVKNGCVVSEYPMGTRARKHHFPARNRIIAGLSDAIIVTEAPIKSGALITVKFALESGRDVFAVPGDIDRKTSEGTNYLIKSGAYPLTDEEDLETHFGIRRIASPSLDDDKKKIYDLLRSSPKTVDELVEELGWSVSEVLRVISEMELMGMIWFDGGAYRLLGEGHHHHHH | soluble |
| KHLFDEIDTIDVMDVNAGDHGKKFATNFDPETNMLEIQGDSFYWENGEWKQVPCHSRMLEFEFPNCGSHKVYSMAHDEVRSMKEFIPAKRIEFWMGFGDRYLNYFNVMRDIGLLSPDPLTLHDGTVVQPLHVLKALLPDP | not soluble |
| GMAQNIYDQPDFFAGYSQLGRSIEGLDGAAEWPALRAMLPEVGGLRIVDLGCGFGWFCRWAHEHGASYVLGLDLSEKMLARARAAGPDTGITYERADLDKLHLPQDSFDLAYSSLALHYVEDVARLFRTVHQALSPGGHFVFSTEHPIYMAPARPGWAIDAEGRRTWPIDRYLVEGPRKTDWLAKGVVKHHRTVGTTLNALIRSGFAIEHVEEFCPTDAQITARPELAEELDRPMFLLVSARR | soluble |
| GPGSMPPKRPLYEVLGVSQDAAEEEISRVYRRMALQYHPDRNPNGEAKFKDIANAYSVLGDSEKRRVYDATGVIPGGAAETDNEATMAERSAEMKERVQVFYATYAGSPEETEDVISCYKKCKGNFRRMAREELLFDNKKQGEIQRLMELVRSLVESGRLNPTEAWKVTNTAAVLKQIERSLTRERKEAKDALDAMGLSAKEGEGGLHALQALMKRDQEAEWSKMMSNLESKYVKPKSATKGVEQNGKRNKRKAEATKTVSAPPQKKSRR | soluble |
| MNVQETYLKELKARGYQPDEAQQRAVDRLQLCYDEWVAYKARRSSALRKLLVRPELPRGVYMWGGVGRGKSFLMDAFYSCVPVVRKTRLHFHEFMREVHRQLEELRGRADPLDELARRIAKRYRLICFDEFHVSDVADAMILHRLLDQLFANGVQFVMTSNYRPDLLYPDGLHRDRVLPAIALLQEKLDVLNVDAGIDYRKRAMEQVQAYHTPLGAQANSALRDAFAAVAEAPDESPILHIEHREIRAQRKAGGVVWFDFATLCGGPRSQNDYLEIAARFHTVILADVPKMTPRMASEARRFTWLIDVLYDHKVKLLMSAEVPADALYTEGQMANEFHRTVSRIIEMQSREYLEAPRRAVDTTLTLEHHHHHH | not soluble |
| MISKTSILLLGFACAAVGANYIESAIFKFDDSCEPLEEPRKPEVAKCYEPSTSLPKTLEEYRAMGYDWGEFVHDDKADQAPEGLDEVFTYPMVPFIGMSLLASKKF | not soluble |
| MRLALADAGDTVEDANFVEAMADAGILRLYTWVEWVKEMLASCSSLRSGPADSFNDRVFASEMNAGIIKTDQNYEKMMFKEALKTGFFEFQAAKDKYRELATEGMHRELVFRFIEVQTILLTPFCPHLCEHIWTLLGKPDSIMHASWPVAGPVDESLIRSSQYLMEVAHDLRLRLKNYMMPAKGKKTDKQPAQRPSHCTIYVAKNYPAWQHITLTTLRSHFEANNGKLPDNKVIASELGSLPELKKYMKKVMPFVAMIKENMEKKGPRVLDLELEFDEQAVLMENIVYLTNSLELEHIDVKFASEAEDKVREECCPGKPLNVFRTEPGVPVSLINPQPSSGHFSTKIDIRQGDSCESIIRRLTKTDRGIKDLSKVKLMRFDDPLLGPRRVPVLGREHSEKTLISENAVFHVDLVSKKVHLTENGLRMDIGDTMVYLVH | not soluble |
| MSLRHMQIETVNLPLARPMAAENGTRHAVTVIRVALEEKGFIGQGECTPAAHYGESADSVCRQLSAIREAIENGLTIEQLQQNLSPGAARNALDCALWRLNTALEKQTLWQRVGIHPPTSVVCAQTLALDSVEKMATAASNAVSHGALLLKIKLDRELILEKVAAIRAAAPNARLIIDARASWSGLDLHSLSTALLPYQVAMIEQPLPVGKDEDLQRFAHPIPICADESCRHSGDIVGLRRRYDMINIKLDKCGGLTEALAMVREAHFHGLRIMVGCTLGSSMAMEAALPVAADAEHVDLDGPIWLAADSSPYLTYNLGRIWLEGHHHHHH | soluble |
| MGSDKIHHHHHHMWGFPRAGSSPALGTSRKRRSFLRFFLEENGVKEIELFGTKVLSGTRREFLNAIEERIEKNIKTFVVTMNASILLKAIEDAGYRAIVNSADLVVPDGFGVVWAMKTLTGETTERLPGVEIMKHLCERSKEKGWKVYLLGTKREIVEKAKQVLERSGVRVVGCHDGFFSEKESPKIVEDVNRSSTDLLFVGMGVPRQEEWIYRNFPQLNVKLAMGVGGSIDVVSGKKKRAPEWVQRMNLEWLYRFFQSPLSKRKVPVQVSKFVFFVLREKLKNRN | not soluble |
| MIEKDVVQILKAVSEFYPGRFQPDDLKGTVKAWHRVLAEYELEEIMNNLTDYAKVNKFPPTVSDLLKAQSEQRDRFIPSYEETQRILKEQAEAEEAARNDPDLQAAQEENMRKIREMLGINRGGAR | soluble |
| MKRFLLSLLALTTLVGCNSKDDNTPTPAKPLSEQQQAYLPTKKVKRISCTYIDEGTTSNTNSPNSYLEAELYNQTYTLRTAEYLYEYDNMGRINKVTIKQERKPEDVRTFTYKDYSVIITAPYDTEVNGQYDIQAVEYGLNAAGNTLGFGMYNEKQQLKSVGDEIITWENDNITKIISKDDREGNKILETVLTYYNNENKNKFNVFSFDFSRESRSFMNYFEMPIALIIGASPKNLPKKVVIPSSRYNGEIENKIIELTYTFDNDGFVKNISENEYLRTGTSVGAYYQNSSYGDIDATTMSNTLQDLMTKIDNGTVTGKSYKIINNKQNERVIQFTIPIKVEKDSNGKPLNLIVDKICEYTFRYITENNQKKLSQIEMNITFKPHLVTHYELNY | not soluble |
| PFKKRRTEDEIRKQCPWATLGRKGGRQPNIITSLELDSAVMEQNNLRFQKKYAEIEANEVRYEEYQTEDADYILVAFGSSARICNKTVQLARQQGIKAGILRPITLWPFPTKEIAKLADRAKGFLVAELNAGQMIEDVRLAVNGKVPVEHYGRMGGMLFSPDEILQALKEKVIK | not soluble |
| MNSSLKNLLNNKILVLDGAMGTCIQSFNLDEGDFKGSLSCTCHSNQKGNNDVLNLTKPEIIKEIHKRYLEAGADIIETNTFNATEISQKDYNMQDKIYDINFKGAKLAKEACTYYTKLNPNKPRFAAGSIGPTNRTASLSPDVENPGFRNVTFDELCNAYKHQIEALIDGGVDLLLIETIFDTLNARAAIFAAETVFENKKIKLPIIISGTIADKSGRILSGQTLDAFAESLKNENIIAIGLNCSFGAEELIPFIKRLSETQNRYISFHPNAGLPNSLGEYEELPEETASIVKKLALEGHLNIVGGCCGTTPEHIRAISSVVKGISPRKVPNLEPKTIYSGLENIKIDKNSNFINIG | not soluble |
